First the molecules themselves.
B1: HDV Ribozyme (parent)
chain: GGCCGGCAUGGUCCCAGCCUCCUCGCUGGCGCCGGCUGGGCAACAUUCCGAGGGGACCGUCCCCUCGGUAAUGGCGAAUGGGACCCA

Variants of B1 are the subject of the series. As to the kind of experiment: self-cleavage, relative activity (ratio to wild type); higher = more cleavage; co-transcriptional.
On to GGCCGGCAUGGUCCCAGCCUCCUCGCUGGCGCCGGCUGGGCAGCAUUCCGAGGGGACCGUCACCUCGGUAAUGGCGAAUGGGACCCA, for which the self-cleavage was found to be 0.554. The figure for AGCCGGCAUGGUCCCAGCCUCCUCGCUGGCGCCGGCUGGGCAACAUUCCGAGGGGAACGUCCCCUCGGUAAUGGCGAAUGGGACCCA is 0.208; for GGCCGGCAUGGUCCCAGCCUCCUCGCUGGCGCCGGCUGUGCAACAUUCCGAGGGUACCGUCCCCUCGGUAAUGGCGAAUGGGACCCA it is 0.677; for GGCCGGCAUGGUCCCAGCCUCCUCGCUGGCGCCGGCUGGGCAACAUUACGAGGGGGCCGUCCCCUCGGUAAUGGCGAAUGGGACCCA it is 1.2. GGCCGGCAUGGUCCCAGCCUCCUCGCCGGCGCCGGCUGGGCAACAUUCCGAGGGGACCGUCCCCUGGGUAAUGGCGAAUGGGACCCA: the self-cleavage worked out at 0.692.

Take GGCCGGGAUGGUCCCAGCUUCCUCGCUGGCGCCGGCUGGGCAACAUUCCGAGGGGACCGUCCCCUCGGUAAUGGCGAAUGGGACCCA: the self-cleavage was determined as 0.

Turning to GGCCGGCAUGGACCCAGCCUCCUCGCUGGCGCCGCCUGGGCAACAUUCCGAGGGGACCGUCCCCUCGGUAAUGGCGAAUGGGACCCA, the self-cleavage was 0.142. Turning to GGCCGGCAGGGGCCCAGCCUCCUCGCUGGCGCCGGCUGGGCAACAUUCCGAGGGGACCGUCCCCUCGGUAAUGGCGAAUGGGACCCA, the self-cleavage was found to be 1.11. The figure for GGCCGGCAUGGUCCCAGCCUCCUCGCUGGCGCCGGCUGGGCAACAUUCCGAGGGGUCCGGCCCCUCGGUAAUGGCGAAUGGGACCCA is 1.07.

GGCUGGCAUGGUCCCAGCCUCCUCGCUGGCGCCGGCUGGGCAACAUUCCAAGGGGACCGUCCCCUCGGUAAUGGCGAAUGGGACCCA: the self-cleavage was found to be 0.686. GGCCGGCAUGGUCCCAGCCUCCUCGCUGGCGCCGGCUGGGCAACAUUCCGAGGGGACCGUUCCCUCGGUAAUGGCUAAUGGGACCCA: the self-cleavage turned out to be 1.06.

Take GGCCGGCAUGGUCCCAGCCUCCUCGCUGGCGCCGGCUGGGCAACAUUCCGAGGGGACCGUCCCCUCGGUAAUAGCGAAUGGGACCCA: the self-cleavage turned out to be 0.691. The figure for GGCCGGCAUGGUCCCAGCCUCCUCGCUGGCGCCGGCUGGGCAUCAUUCCGAGGGGACCGUCCCCUCGGUAAUGGCGAAUCGGACCCA is 0.115; for GGCCGGCAUGGUCCUAGCCUCUUCGCUGGCGCCGGCUGGGCAACAUUCCGAGGGGACCGUCCCCUCGGUAAUGGCGAAUGGGACCCA it is 0.35; for GGCCGGCAUGGUCCCAGCCUCUUCGCUGGCGCCGGCUGGGCAACAUUCCGAGGGGACCAUCCCCUCGGUAAUGGCGAAUGGGACCCA it is 0.675.

Consider GGCCGGCAUGGUCCCACCCUCCUCGCUGGCGCCGGCUGAGCAACAUUCCGAGGGGACCGUCCCCUCGGUAAUGGCGAAUGGGACCCA, for which the self-cleavage was 0.113. In the case of GGCCGGCAUGGUCCCAGCCUCCUCGCUGGCGCUGGCUGGGCAACAUUCCGAGGGGACCGUCCCCUCGGUAAUGGCGUAUGGGACCCA it was 0.439; in that of GGCCGGCUUGGUCCCAGCCUCCUCGCUGGCGCCGGCUGGGCAACAUUCCGAGGGGACCGUCCCCUCGGUAAUAGCGAAUGGGACCCA, 0.323.

Regarding GGCCGGCAUGGUCCCAGCCUCCUGGCUGGCGCCGGCUGGGCAACAUUCCGAGGGGACCGUCCCCUCGGUAAUGGCGGAUGGGACCCA, the self-cleavage amounted to 0.298.

Take GGCCGGCAUGGUCCCAGCCUCCUCGCGGGCGCCGGCUGGGCAACAUUCCGAGGGGACCGUCCCCUCGGUGAUGGCGAAUGGGACCCA: the self-cleavage came out at 1.14. In the case of GGCCGGCAUGGUCCCAGCCUCCUCUCUGGCGCCGGCUGGGCAACAUUCCGAGGGGAUCGUCCCCUCGGUAAUGGCGAAUGGGACCCA it was 0.227; in that of GGCCGGCAUGGUCCCAGCCUCCUCGCUGGCGCCGGCUGGGCAACAUUCCCAGGGGACCGUCCCCUCGGUAAUGCCGAAUGGGACCCA, 0.196; in that of UGCCGGCAUGGUCCCAGCCUGCUCGCUGGCGCCGGCUGGGCAACAUUCCGAGGGGACCGUCCCCUCGGUAAUGGCGAAUGGGACCCA, 0.312. The figure for GGCCGGCAUGGUCCCAGCCUCCUCGCUGGCGCCGGCUGCGCAACAUUCCGAGGGGACCUUCCCCUCGGUAAUGGCGAAUGGGACCCA is 0.147; for GGCCGGCAUGGUCACAGCCUCCUCGCUGGCGCCGGCUGGGCAAUAUUCCGAGGGGACCGUCCCCUCGGUAAUGGCGAAUGGGACCCA it is 0.166; for GGCCGGCAUGGUCCCAGCCUCCUCGCUGGCGCCGGCUGGGCAACAUUCCGAGGGGACCGUCCCCACGCUAAUGGCGAAUGGGACCCA it is 0. In the case of GGCCGGCAUGGUCCCAGCCUCCUCGCUGGCGCCGGCUGGGCAACAUUCCGAGGUGACCGUCCCCUCCGUAAUGGCGAAUGGGACCCA it was 0.694; in that of GGCCGGCAUGGUCCCAGCCUCCUCGCUGGCGCCGCCUGGGCAACAUUCGGAGGGGACCGUCCCCUCGGUAAUGGCGAAUGGGACCCA, 0.0449.

For the variant GGCCGGCAUGGUCCCGGCCUCCUCGCUGGCGCCGGCUGGGCAACAUUCCGAGGGGACCGUCCUCUCGGUAAUGGCGAAUGGGACCCA, the self-cleavage is 0.997. In the case of GGCCGGCAUGGUCCCAGCCUCCUCGCUGGCGCCGGCUGGUCAACAUUCCGAGGGGACCGUUCCCUCGGUAAUGGCGAAUGGGACCCA it was 0.631; in that of GGCCGGCAUGGUCCCAGCCUCCUCGCAGGCGCCGGAUGGGCAACAUUCCGAGGGGACCGUCCCCUCGGUAAUGGCGAAUGGGACCCA, 0; in that of GGCCGGCAUGGUCCCAGCCUCCUCGCUGGCGCCGGCUGGGCAACAGUCCGAGGGGACCGUCCCCUCGGUAAUGGCGAAUGGGAGCCA, 0.185.

For the origin of these results see the RNAGym collection of RNA variant scans (doi:10.7554/elife.80360).
